From US20240409645A1 (DUALYX, published 2024) come the findings set out here.

In test [1] the target is T1, human common cytokine receptor γ-chain (IL-2Rγ) (human, UniProt P31785 23-262, limits assumed).
T1 construct: Recombinant human IL-2Rγ protein, coated (ELISA) or amine-coupled to a CM5 chip (SPR); also called hu IL-2R; CD132
T1 sequence: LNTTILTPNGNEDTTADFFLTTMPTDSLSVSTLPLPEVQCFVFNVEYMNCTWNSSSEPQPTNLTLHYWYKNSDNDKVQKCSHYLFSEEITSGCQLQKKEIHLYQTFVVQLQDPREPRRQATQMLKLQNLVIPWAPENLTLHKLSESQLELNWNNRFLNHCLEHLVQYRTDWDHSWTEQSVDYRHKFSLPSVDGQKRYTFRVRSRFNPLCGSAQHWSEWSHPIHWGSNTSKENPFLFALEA
Description: P.E. off-rate SPR. As to the method:
(§1) SPR was performed to determine dissociation rates using Biacore 3000 instrument (GE Healthcare). Briefly, human and mouse IL-2R proteins were immobilized on carboxylmethyl dextran sensor chip (CM5) at approximately 2500 RUs using amine coupling in acetate buffer (GE Healthcare). The VHH-containing P.E. were loaded with a flow rate of 30 uL/min and the off-rates were measured over a 120s period.

Test [2] has as its target T2, mouse common cytokine receptor γ-chain (IL-2Rγ) (mouse, UniProt P34902 23-263, limits assumed).
T2 construct: Recombinant mouse IL-2Rγ protein; also called mo IL-2R; mouse IL-2R gamma
T2 sequence (looked up): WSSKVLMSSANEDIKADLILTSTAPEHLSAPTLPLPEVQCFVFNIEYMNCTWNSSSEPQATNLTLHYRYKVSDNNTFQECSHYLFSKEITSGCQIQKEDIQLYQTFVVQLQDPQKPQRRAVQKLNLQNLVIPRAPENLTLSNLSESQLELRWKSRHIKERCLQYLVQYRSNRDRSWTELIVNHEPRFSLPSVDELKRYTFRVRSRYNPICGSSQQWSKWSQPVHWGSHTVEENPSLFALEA
Description: P.E. off-rate SPR. The protocol: as §1

Test [3] has as its target T1, human common cytokine receptor γ-chain …. The experiment in a line: P.E. binding ELISA. As to the method: (§2) In a binding ELISA, human or mouse IL-2Rα, IL-2Rβ and IL-2Rγ proteins were coated directly on maxisorp microtiter plates overnight at 4° C. Free binding sites were blocked using 4% Marvel in PBS for 1 hour. Next, 1:5 dilution of P.E. in 1% Marvel/PBS were added to wells and incubated for 1 hour. […] Binding specificity was determined based on O.D. at 450 nm values compared to negative controls.

Test [4] addresses T2, mouse common cytokine receptor γ-chain …. The experiment in a line: P.E. binding ELISA. The protocol: as §2

A word on the koff: it is the first-order rate constant of dissociation.

B1: FJ1427_P035MP07E04 (VHH)
VHH: QVQLVESGGGLVQAGDSLRLSCEASGRTLSRYAMGWFRQAPGKEREFVTANSWGGDTYYADSVQGRFTFSRDNAKNTVYLQMNSLQPEDTAVYYCAAAPTSFATTAYSSSNSYAYWGQGTQVTVSS
notes: tested as periplasmic extract; also called Clone nr; 605
On to B1, for which the koff worked out at 0.00259 s⁻¹ in test [1] and 0.103 s⁻¹ in test [2]. The results for the “PE binding ELISA OD” value in test [3] and in test [4] were 0.729 OD450 nm and 0.046 OD450 nm, respectively.

B2: FJ1427_P035MP07H05 (VHH)
VHH: QVQLVESGGGLVQAGGSLRLSCAASGRTLSRYAMGWFRQAPGKEREFVAANSWGGDTYYTDSVEGRFTFSRDNAKNAVYLQMNSLQPGDTAVYYCAAAPTSFATTAYSSSNSYSYWGQGTQVTVSS
notes: tested as periplasmic extract; also called Clone nr
For B2, the figures for the koff in test [1] and in test [2] were 0.00279 s⁻¹ and 0.118 s⁻¹, respectively. For the same molecule, the “PE binding ELISA OD” value in test [3] was 1.14 OD450 nm; in test [4] it was 0.049 OD450 nm.

B3: FJ1427_P035MP07E09 (VHH)
VHH: QVQLQESGGGLVQAGGSLRLSCAASGRTLSRYAMGWFRQAPGKEREFVTANSWGGDTYYADSVQGRFTFSRDNAKNTVYLQMNSLQPEDTAVYYCAAAPTSFATTAYSSSNSYAYWGQGTQVTVSS
notes: as for B2
B3: the koff was found to be 0.0033 s⁻¹ in test [1] and 0.108 s⁻¹ in test [2]. Further, the “PE binding ELISA OD” value amounted to 0.428 OD450 nm in test [3] and 0.045 OD450 nm in test [4].

B4: FJ1427_P035MP07F10 (VHH)
VHH: QVQLQESGGGLVQAGGSLRLSCAASGRTLSRYAMGWFRQAPGKEREFVACDSWGGDTFYADSVEGRFTFSRDNAKNATYLQMNSLQPEDTAVYYCAGAPTSFATTAYSSSNSYTVWGQGTQVTVSL
notes: tested as periplasmic extract; also called Clone nr; 654
On to B4, for which the koff in test [1] amounted to 0.00199 s⁻¹; in test [2] it was 0.0121 s⁻¹. Also, the results for the “PE binding ELISA OD” value in test [3] and in test [4] were 0.67 OD450 nm and 0.089 OD450 nm, respectively.

B5: FJ1427_P035MP07E08 (VHH)
VHH: QVQLVESGGGLVQAGGSLRLSCAASGRTLSRYAMGWFRQAPGKEREFVAADSWGGDTYYDDSVEGRFTFSRDIAKNAVYLQMNSLQPEDTAVYYCAAAPTSFATTAYSSSNSYAYWGQGTQVTVSS
notes: as for B2
For the molecule B5, the koff turned out to be 0.00229 s⁻¹ in test [1] and 0.13 s⁻¹ in test [2]. Moreover, the figures for the “PE binding ELISA OD” value in test [3] and in test [4] were 0.642 OD450 nm and 0.049 OD450 nm, respectively.

B6: FJ1427_P035MP07F07 (VHH)
VHH: EVQLVESGGGLVQAGGSLRLSCAASGRTLSRYAMGWFRQAPGKEREFVTANSWGGDTYYADSVQGRFTFSRDNAKNTVYLQMNSLQPEDTAVYYCAAAPTSFATTAYSSSNSYAYWGQGTQVTVSS
notes: tested as periplasmic extract; also called Clone nr; 630
Turning to B6, the results for the off-rate (koff) in test [1] and in test [2] were 0.003 s⁻¹ and 0.133 s⁻¹, respectively. Moreover, the “PE binding ELISA OD” value in test [3] is 0.372 OD450 nm; in test [4] it was 0.045 OD450 nm.

B7: FJ1427_P035MP07F06 (VHH)
VHH: QVQLVESGGGLVQAGGSLRLSCAASGRALSRLAMGWFRQAPGKEREFVVASSWGDDTFYADSVKGRFTFSRDNAKNTVYLQMNSLQPGDTAVYYCAAAPTSFATTAYSSSNSYAYWGQGTQVTVSS
notes: as for B2
In the case of B7, the koff in test [1] stood at 0.00162 s⁻¹; in test [2], 0.0117 s⁻¹. In addition, the “PE binding ELISA OD” value was 1.34 OD450 nm in test [3] and 0.082 OD450 nm in test [4].

B8: FJ1427_P035MP07F05 (VHH)
VHH: EVQLVESGGGLVQAGGSLRLSCAASGRTLSRYAMGWFRQAPGREREFVTANSWGGDTYYADSVQGRFTFSRDNAKNTVYLQMNSLQPEDTAVYYCAAAPTSFATTAYSSSNSYAYWGQGTQVTVSS
notes: as for B2
For the molecule B8, the koff came out at 0.00323 s⁻¹ in test [1] and 0.116 s⁻¹ in test [2]. Besides, the “PE binding ELISA OD” value stood at 0.405 OD450 nm in test [3] and 0.045 OD450 nm in test [4].

B9: FJ1427_P035MP07F04 (VHH)
VHH: EVQLVESGGGLVQAGGSLRLSCAASGRTLSRYAMGWFRQAPGKEREFVTANSWGGDTYYADSVQGRFTFSRDNAKNTVYLQMNSLQPEDTAVYYCAAAPTSFATTAYSSSNSYAYWGQGTQVTVSS
notes: tested as periplasmic extract; also called Clone nr; 606
Take B9: the values for the dissociation rate constant (koff) in test [1] and in test [2] were 0.00296 s⁻¹ and 0.115 s⁻¹, respectively. Also, the “PE binding ELISA OD” value was determined as 0.4 OD450 nm in test [3] and 0.047 OD450 nm in test [4].

B10: FJ1427_P035MP07G05 (VHH)
VHH: QVQLVESGGGLVQAGGSLRLSCAASGRTLSRYAMGWFRQAPGKEREFVAADSWGGDTYYADSVEGRFTFSRDNANNAVYLQMNSLQPEDTAVYYCAAAPTSFATTAYSSSNSYAYWGQGTQVTVSS
notes: as for B2
As for B10, the koff in test [1] amounted to 0.00257 s⁻¹; in test [2], 0.191 s⁻¹. Also, the “PE binding ELISA OD” value in test [3] came out at 0.45 OD450 nm; in test [4] it was 0.046 OD450 nm.

B11: FJ1427_P035MP07G08 (VHH)
VHH: QVQLVESGGGLVQAGGSLRLSCAASGRTLSRYAMGWFRQAPGREREFVTANSWGGDTYYADSVQGRFTFSRDNAKNTVYLQMSSLQPEDTAVYYCAAAPTSFATTAYSSSNSYAYWGQGTQVTVSS
notes: as for B2
For B11, the figures for the koff in test [1] and in test [2] were 0.003 s⁻¹ and 0.105 s⁻¹, respectively. Also, the “PE binding ELISA OD” value came out at 0.504 OD450 nm in test [3] and 0.047 OD450 nm in test [4].

B12: FJ1427_P035MP07H01 (VHH)
VHH: QVQLVESGGGLVQAGGSLRLFCATSGRTLSRYAMGWFRQAPGREREFVACDSWGGDTFYADSVKGRFTFSRDSAKNTVYLQMNSLQPEDTAVYYCAAAPTSFATTAYSSSNSYAYWGQGTQVTVSS
notes: as for B2
For the molecule B12, the koff in test [1] is 0.00125 s⁻¹; in test [2], 0.0274 s⁻¹. Besides, the “PE binding ELISA OD” value in test [3] came out at 0.818 OD450 nm; in test [4], 0.133 OD450 nm.

B13: FJ1427_P035MP07G04 (VHH)
VHH: EVQLVESGGGLVQAGGSLRLSCAASGRTLSRYAMGWFRQAPGKEREFVTANSWGGDTYYADSVQGRFTFSRDNAKNTVYLQMNSLQPEDTAVYYCAAAPTSFATTAYSSSNSYAYWGQGTQVTVSS
notes: as for B2
Consider B13, for which the results for the dissociation rate constant (koff) in test [1] and in test [2] were 0.00281 s⁻¹ and 0.112 s⁻¹, respectively. Moreover, the “PE binding ELISA OD” value in test [3] is 1.02 OD450 nm; in test [4], 0.047 OD450 nm.

B14: FJ1427_P035MP07H02 (VHH)
VHH: QVQLVESGGGLVQAGGSLRLSCAASGRALSRLAMGWFRQAPGKEREFVVASSWGDDTFYADSVKGRFTFSRDNAKNTVYLQMNSLQPGDTAVYYCAAAPTSFATTAYSSSNSYAYWGQGTQVTVSS
notes: tested as periplasmic extract; also called Clone nr; 592
Consider B14, for which the values for the koff in test [1] and in test [2] were 0.00188 s⁻¹ and 0.0123 s⁻¹, respectively. For the same molecule, the figures for the “PE binding ELISA OD” value in test [3] and in test [4] were 0.801 OD450 nm and 0.066 OD450 nm, respectively.

B15: FJ1427_P035MP07H10 (VHH)
VHH: EVQLVESGGGLVQAGGSLRLSCAASGRALSRLAMGWFRQAPGKEREFVVASSWGDDTFYADSVKGRFTFSRDNAKNTVYLQMNSLQPGDTAVYYCAAAPTSFATTAYSSSNSYAYWGQGTQVTVSS
notes: tested as periplasmic extract; also called Clone nr; 656
Regarding B15, the results for the off-rate (koff) in test [1] and in test [2] were 0.00236 s⁻¹ and 0.0137 s⁻¹, respectively. Further, the figures for the “PE binding ELISA OD” value in test [3] and in test [4] were 0.572 OD450 nm and 0.049 OD450 nm, respectively.

B16: FJ1427_P035MP07G10 (VHH)
VHH: QVQLVESGGGLVQAGGSLRLSCAASGRTLSRYAMGWFRQAPGKEREYVAIDSWGGDTFYADSVEGRFTFSRDNAKNEVYLQMNSLQPEDTAVYYCAGAPTSFATTAYSSSNSYRYWGQGTQVTVSS
notes: tested as periplasmic extract; also called Clone nr; 655
As for B16, the off-rate constant (koff) in test [1] was determined as 0.00122 s⁻¹; in test [2], 0.00682 s⁻¹. In addition, the “PE binding ELISA OD” value worked out at 0.682 OD450 nm in test [3] and 0.74 OD450 nm in test [4].

B17: FJ1427_P035MP07H04 (VHH)
VHH: QVQLVESGGGLVQAGGSLRLSCAASGRTLSRYAMGWFRQAPGKEREFVAAMSWGGDTFYADSVEGRFTFSRDNAEIAVYLQMNSLQPEDTAVYYCAAAPTSFATTAYSSSNSYAYWGQGTQVTVSH
notes: as for B2
On to B17, for which the dissociation rate constant (koff) in test [1] is 0.00177 s⁻¹; in test [2], 0.0823 s⁻¹. Also, the “PE binding ELISA OD” value in test [3] came out at 0.593 OD450 nm; in test [4], 0.052 OD450 nm.

B18: FJ1427_P035MP07H07 (VHH)
VHH: QVQLVESGGGLVQAGDSLRLSCAASGRTLSRYAMGWFRQAPGKEREFVAATSWGGDSYYADSVEGRFTFSRDNAKNAVYLQMNSLQPEDTAVYYCAAAPTSFATTAYSSSNSYANWGQGTQVTVSS
notes: as for B2
For B18, the values for the off-rate constant (koff) in test [1] and in test [2] were 0.00418 s⁻¹ and 0.00331 s⁻¹, respectively. For the same molecule, the entries for the “PE binding ELISA OD” value in test [3] and in test [4] were 1.42 OD450 nm and 0.047 OD450 nm, respectively.

B19: FJ1427_P035MP07E05 (VHH)
VHH: EVQLVESGGGLVQAGGSLRLSCAASGRTLSRYAMGWFRQAPGKEREFVTANSWGGDTYYADSVQGRFTFSRDNAKNTVYLQMNSLQPEDTAVYYCAAAPTSFATTAYSSSNSYAYWGQGTQVTVSS
notes: as for B2
Take B19: the off-rate (koff) in test [1] was 0.00372 s⁻¹; in test [2] it was 0.12 s⁻¹. Besides, the “PE binding ELISA OD” value was 0.434 OD450 nm in test [3] and 0.045 OD450 nm in test [4].
